Data: the supplement of paper PMC12764529
± gives the half width of the 95% confidence interval.

How the values were obtained:
[1] = folding stability dG unfold (combined trypsin and chymotrypsin); higher = more stable
How it was run: (§1)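 Sequencing followed digestion of designed mini-proteins with trypsin and chymotrypsin, each at 11 concentrations in threefold dilutions together with a no-protease condition. The mini-proteins were under 80 residues, had no cysteine, sat in a PA-tagged cDNA display construct, and were kept only if AlphaFold2 dimer inter-PAE was above 15. From the counts, Bayesian fitting gave K50, and unfolding free energy was derived against a sequence-predicted unfolded-state K50 and a shared folded-state K50, per protease or combined.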

[2] = folding stability dG unfold from chymotrypsin proteolysis; higher = more stable
How it was run: as §1

[3] = folding stability dG unfold from trypsin proteolysis; higher = more stable
How it was run: as §1

Sequence | folding stability dG unfold [1] [kcal/mol] | folding stability dG unfold [2] [kcal/mol] | folding stability dG unfold [3] [kcal/mol]
SAGGSAGGSAPPPPPPVYRIPIEITEIDPNGKITVTLPDLGEEITFPAPNVEVIPGDEFYIPSAGGSAGGSA [r18_89_TrROS] | 1.86 ± 0.16 | 1.67 ± 0.045 | 1.95 ± 0.11
SAGGSAGMSTVTVPLTVELVDPNNGNLKKVIERPLTVPAELSLDEVKEIVREEAKKEGLTIAKILLSAGGSA [r15_195_JUSTAS] | 0.00724 ± 0.13 | -0.0556 ± 0.092 | -0.122 ± 0.21
SAGGSAMKVVFYGDEASQKEIAEKAKKEGIEYEAYPGSREEILAYVKENYPDVKMIVYPEGKEYLISAGGSA [r15_712_JUSTAS] | 0.179 ± 0.073 | 0.094 ± 0.18 | 0.0902 ± 0.072
SAGGSAELVSVDVELEGRYLRVRARFRLPDGREVEVEVRFSLPGVPPAPPVFPYRDPETGELRLGLSAGGSA [r15_335_TrMRF] | 3.57 ± 0.14 | 3.614 ± 0.023 | 3.27 ± 0.056
SAGGMKVTILEVKPDEVVVKTSDGKTYVFPEVIKELKEKGGGVLPTKEEIAEYLKKNNIPVDDVEFGLSAGG [r13_610_JUSTAS] | 1.6 ± 0.15 | 1.9 ± 0.058 | 0.436 ± 0.1
SAGGPNLYIFIKIEHKGQTVTFMYPVPPGNLEKLVDEIASMGFPEIKIEEIYIFPPNGWIPVTVRLPSAGGS [r8_219_TrROS] | 3.4 ± 0.14 | 3.71 ± 0.041 | 2.88 ± 0.13
SAGGSAGGSKKKPYIIKIYYKDPKTKKKSKKEILVSGKVKNPEKFAKEAAKKLGPVGKVEFKPSAGGSAGGS [r12_942_TrMRF] | 0.537 ± 0.098 | 0.757 ± 0.15 | -0.0324 ± 0.084
SAGGSAGGGGMMKTITIPLEELKAKLAKETGKPLTIEEIKEALKKEGIKLLSVDKEKGTITISESAGGSAGG [r6_767_JUSTAS] | 2.16 ± 0.13 | 1.73 ± 0.09 | 2.4 ± 0.1
SAGGSAGGGGVAEEVAALLKALGLKVKKIEVEVEEVPPDKKVARVKVTAELPTKKVTFELRVEVSAGGSAGG [r6_532_TrMRF] | 2.76 ± 0.28 | 3 ± 0.068 | 1.97 ± 0.092
SAGGSAGGSGDSITLPVSVPKGSELVIENLSTNKKVIIPDDGPVTITIDKGKDGLKISAEVEKSAGGSAGGS [r12_919_TrMRF] | -0.0498 ± 0.25 | 0.106 ± 0.053 | -0.398 ± 0.16
SAGGSAGGSGYTTTTSTSISLSPTSFTVTTTTTTTDPVTKTTTVTTTTTTVPLPPSLLSLVSSSAGGSAGGS [r12_885_JUSTAS] | 2.5 ± 0.2 | 2.97 ± 0.052 | 2.21 ± 0.17
SAGGSQEELAKQLAEELAKKEGLKEVKVSITPSPGPVLNITFEFYDENGNKKGVKSKTIPLPPDLLSAGGSA [r2_153_JUSTAS] | 0.515 ± 0.53 | 0.0811 ± 0.15 | 1.06 ± 0.11
SAGGSAGGSAGGNYVVRIEHNGQPIMEQPFPGSLEDAKDYVKEIAQFFPPDKVKIEVYKFSAGGSAGGSAGG [r7_81_TrROS] | 0.292 ± 0.095 | 0.458 ± 0.19 | -0.0528 ± 0.057
SMNIISIDIEPYRTGGEPWIYIPIQVPDENMPPSELEEIVEEIFEKLGLPINVKVHRDPNSGTIWIMIRLSA [r9_717_TrROS] | 2.75 ± 0.27 | 2.79 ± 0.13 | 2.72 ± 0.15
MKKKVTISIKRKSEVKYTKFPNGEVVPVEDLGGLTVTIEVPESELEELLKKLDIPEDEIEEITVTITPEASS [r1_351_JUSTAS] | 0.648 ± 0.42 | -0.175 ± 0.8 | 1.08 ± 0.18
SAGDLAEYIAETLQDHFPNMEVEVEIDGVEDGYIVIDITIYFRDMKDNENKPRWVPWEIVIPPGEPLPSAGG [r19_8_TrROS] | 3.38 ± 0.19 | 4.09 ± 0.051 | 2.36 ± 0.14
SNEPPVIEIKFRIDEVQPMNGQPMIMFEITEIEDAPPEIQDLLKNGYYIMIHMPPGEPLKEGEEFEIHIFSA [r9_557_TrROS] | 2.01 ± 0.3 | 2.75 ± 0.12 | 1.34 ± 0.09
